Data published in patent publication US20110293603A1 (Ablynx, published 2011).
Blank lines part the entries; values can stand above or below the binder they belong to.

Key:
[1] = target: T1, extracellular part of recombinant human Lox-1 fused to polyhistidine tag (R&D Systems, cat nr. 1798-LX) (human, UniProt P78380 61-273); experiment: ELISA, rhLox-1 coated at 2 ug/ml, nanobody 1-1000 nM, detection with anti-Myc 9E10
[2] = target: T2, extracellular part of recombinant human RAGE fused to human Fc (R&D Systems Cat No 1145-RG) (human, UniProt Q15109 23-342); experiment: immunoprecipitation on Talon beads, SDS-PAGE and blot with mouse anti-RAGE and mouse anti-myc
T2 construct: extracellular domain; Bought protein; they look like the limits of the IgG1 Fc part; also called rhRG; 1145-RAGE; not shown: human Fc region of human IgG1, at the C-terminus
Protocol: In order to test the binding of anti-RAGE clones further an Immunoprecipitation experiment was performed. In short, 100 ul of Talon slurry (50 ul beads) was washed carefully with lysis buffer (RIPA without EDTA) (20 mM tris pH7.4; 150 mM NaCl; 0.5% TritonX100; 0.1% SDS). 10 ug of VHHs was added to the beads in 200 ul of lysis buffer and incubate for 30 min hoh. The beads were washed once with lysis buffer and 1 ug of rhRG was added to the beads (100 ul) and incubated for 1 hour. The beads were spinned down and supernatant was removed. The beads were washed twice. Subsequently the beads were boiled for 5 min in sample buffer and the proteins were separated on a SDS PAGE by gel electrophoresis (FIG. 1).
The high molecular weight part was detected with mouse-anti-RAGE antibody (R&D systems) and the lower part was detected with mouse anti-myc.

[3] = target: T3, extracellular part of recombinant human SR-A1 fused to polyhistidine tag (R&D Systems Cat No 2708-MS) (human, UniProt P21757 77-451); experiment: ELISA, rhSRA-1 coated at 2 ug/ml, nanobody 1-1000 nM, detection with anti-Myc 9E10
T3 construct: range 77-451; Bought protein; that entry was therefore not used; also called rhSRA-1
T3 sequence: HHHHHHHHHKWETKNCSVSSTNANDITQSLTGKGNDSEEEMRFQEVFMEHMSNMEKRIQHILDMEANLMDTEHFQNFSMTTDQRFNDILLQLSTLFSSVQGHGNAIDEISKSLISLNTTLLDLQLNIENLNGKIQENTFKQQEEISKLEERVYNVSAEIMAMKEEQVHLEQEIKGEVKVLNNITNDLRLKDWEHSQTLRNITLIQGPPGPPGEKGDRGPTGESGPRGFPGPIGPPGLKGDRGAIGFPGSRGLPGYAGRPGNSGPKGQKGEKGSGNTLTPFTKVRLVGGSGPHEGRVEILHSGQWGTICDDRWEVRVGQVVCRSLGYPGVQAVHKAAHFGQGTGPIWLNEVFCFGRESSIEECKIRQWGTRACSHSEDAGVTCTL

[4] = target: T3, extracellular part of recombinant human …; experiment: ELISA, rhSRA-1 coated at 2 ug/ml, nanobody detected with anti-Myc 9E10
[5] = target: T1, extracellular part of recombinant human …; experiment: ELISA, rhLox-1 coated at 2 ug/ml, nanobody detected with anti-Myc 9E10

T2 sequence (Q15109 23-342): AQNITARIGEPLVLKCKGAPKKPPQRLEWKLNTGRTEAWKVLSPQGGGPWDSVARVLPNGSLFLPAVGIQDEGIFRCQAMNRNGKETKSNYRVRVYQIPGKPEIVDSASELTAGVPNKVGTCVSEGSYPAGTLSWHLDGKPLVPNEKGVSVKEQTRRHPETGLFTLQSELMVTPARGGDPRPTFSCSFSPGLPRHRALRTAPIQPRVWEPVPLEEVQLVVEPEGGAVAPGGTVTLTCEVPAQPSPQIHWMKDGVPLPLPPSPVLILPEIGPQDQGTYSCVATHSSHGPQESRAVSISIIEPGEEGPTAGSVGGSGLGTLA

binding result [1]: binds
B1: Nanobody 105B8 (VHH)
VHH: EVQLVESGGGLVQAGGSLRLSCAASGFTFDDYVIGWFRQAPGKEREGVSCISSSEGSTYYAESVKGRFTISSDNAKNTVYLQMNSLKPEDTAVYYCAASTWLDFVHGNEYDYRGQGTQVTVSS
notes: Myc-tagged (detected with anti-Myc 9E10)

binding result [2]: no binding
B2: Nanobody 99D3 (VHH)
VHH: EVQLVESGGGLVQPGGSLRLSCAASGFTLGNYAIGWFRQAPGKEREGVSCVDRDGGSTYYLDSVTGRFTTSRDDAENTVYLQMNSLIPDDTAVYYCATRLYGCSGYGRDYADWGQGTQVTVSS
notes: as for B1

binding result [3]: binds
B3: Nanobody 99C8 (VHH)
VHH: EVQLVESGGGLVQPGGSLRLSCAASGSIGRFVAMGWYRQAPGKQRELVATITSITSGGRTNYADSVKGRFTISRDNAKNTVYLQMNSLKPEDTAVYYCNVVPYVNDYWGQGTQVTVSS
notes: Myc-tagged (detected with anti-Myc 9E10); also called 99C8 α SR-A1

binding result [3]: binds
B4: Nanobody 105G11 (VHH)
VHH: EVQLVESGGGLVQAGGSLRLSCAASGRTFSRYAMAWFRHAPGKDREFVAAVSQSGLLTFYADSVKGRFTISRDNAKNTVYLQMNSLKPEDTAVYDCAADSRFPLVVPVAYENWGQGTQVTVSS
notes: as for B1

binding result [1]: binds
B5: Nanobody 105F7 (VHH)
VHH: EVQLVESGGGLVQAGGSLRLSCAASGRTFSNYAMGWFRQAPGKEREFVAAITWSGSSTYYADSVKGRFTISRDNAKNTVYLQMNSLKPEDTAVYYCAAAQRGRYYYLDRNVEYDYWGQGTQVTVSS
notes: as for B1

binding result [1]: binds
B6: Nanobody 98B9 (VHH)
VHH: EVQLVESGGGLVQAGGSLRLSCAASIGTFSAYHMGWFRQAPGKERELVAAISWSVSSTYYADSVKGRFTISRDNAKRTVSLQMDSLKPEDTAVYYCAARSGERYDYYKAQYEYWGQGTQVTVSS
notes: as for B1

binding result [1]: binds
B7: Nanobody 98F12 (VHH)
VHH: EVQLVESGGGLVQAGGSLRLSCAASGFTFDDYAIGWFRQAPGKEREGVSCVSRDGGSTYYLDSVKGRFTISSDNAKNTVYLQMNSLKPEDAAVYYCAASRYDCSKYLIDYNYRGQGTQVTVSS
notes: as for B1

binding result [1]: binds
B8: Nanobody 98A10 (VHH)
VHH: EVQLVESGGGLVQPGGSLRLSCLPSTSTSSLRTVGWYRQGPGKQRDLVAIMSAGTTRYADSVKGRFTISLDDAKNTVYLQMNSLKPEDTAVYICNGRPVFSNVDYWGQGTQVTVSS
notes: as for B1

binding result [1]: binds
B9: Nanobody 98D8 (VHH)
VHH: EVQLVESGGGLVQPGGSLRLSCAASGSIFTINAMAWYRQAPGKQRELVAHLTNSGRTGYADSVKGRFTISSDNAKNTVYLQMNSLKPEDTAVYYCNRLGLHWSWGQGTQVTVSS
notes: as for B1

binding result [3]: binds
B10: Nanobody 99C9 (VHH)
VHH: EVQLVESGGGLVQVGGSLRLSCAASGISIRTHAMGWYRQAPGKQRELVATITSVTSGGSLNYADSVKGRFTISRDNAKNTVYLQMNSLKPEDTAVYYCKLLGFDYRGQGTQVTVSS
notes: as for B1

binding result [1]: binds
B11: Nanobody 105A8 (VHH)
VHH: EVQLVESGGNLVQAGGSLRLSCAASGFTFDDYVIGWFRQAPGKEREGVSCISSVEGSTYYADSVKGRFTISGDNAKNTVYLQMNSLKPEDTAVYYCAAGTWLDCSGYGSYDMDYWGKGTLVTVSS
notes: as for B1

binding result [4]: no binding (tested: 1-1000 nM)
binding result [5]: no binding (tested: 1-1000 nM)
B12: Nanobody 49C5 (negative control, irrelevant nanobody against alphaFcgRI) (VHH)
VHH: EVQLVESGGGLVQAGGSLGLSCVASGRTFVSGGMGWFRQAPGKEREFVASIVWIGGRTYYADSVKGRFTISGDNAKSTVTLQMNSLKPEDTATYYCADGDLATGTYDYWGQGTQVTVSS
notes: Negative control; generation published in WO2008/074867; Myc-tagged (detected with 9E10)

binding result [1]: binds
B13: Nanobody 98E9 (VHH)
VHH: EVQLVESGGGLVQPGGSLRLSCAAYGSFFSIGTMGWYRQPPGNQRELVAVTYGLGSTNYAESVKGRFTISRDNAKNTVSLQMNSLKPEDTAVYYCYAEIDTDPRSGEWDYWGQGTQVTVSS
notes: as for B1
